Experimental data taken from patent US6268347A, “Prosaposin-derived peptides” (Regents of the University of CA, priority 1999, dated 2001).
Where a SMILES comes first, the peptide text is derived from it. [ ]: non-standard residue; d: D form.

How the values were obtained:
Chung model rats = experiment: Tactile allodynia (von Frey 50% paw withdrawal threshold) in Chung model rats; format: in vivo, rat; conditions: any concentration tested, intrathecal
Procedure: The surgical procedure previously described by Kim and Chung, supra, 1992, was performed on male Sprague-Dawley rats weighing 120 to 150 grams to induce an allodynic state. Briefly, the rats were anesthetized with halothane; subsequently, the left L-5 and L-6 spinal nerves were isolated adjacent to the vertebral column and ligated with 6.0 silk suture distal to the dorsal root ganglion. After a ten to fourteen day post operative recovery period, a spinal catheter was introduced. Five days following the second surgery, intrathecal drug administration was accomplished using a gear driven micro-injection syringe connected to a spinal catheter inserted through the foramen magnum. Prior to testing, the rats were placed in clear plastic wire meshed cages and allowed to accommodate.
To assess the 50% mechanical threshold for paw withdrawal, a von Frey hair was applied to the hind foot avoiding the foot pad. Each of the von Frey hairs, which are calibrated to bend at increasing log forces, were pressed perpendicularly to the foot with sufficient force to cause slight bending for a duration of approximately six to eight seconds. A positive response was noted if the foot was sharply withdrawn. […] The X-axis indicates the time after the injection at which point the hypersensitivity to pressure on the foot pad was measured.

[1] = tested on: choline acetyltransferase activity; conditions: cited from earlier work
neurite outgrowth = conditions: cited from earlier work
neuroblastoma cells = conditions: cited from earlier work

CC[C@H](C)[C@H](NC(=O)[C@H](CCC(=O)O)NC(=O)[C@H](CCCCN)NC(=O)[C@H](CCC(=O)O)NC(=O)[C@@H](NC(=O)[C@H](CCCCN)NC(=O)[C@H](CC(N)=O)NC(=O)[C@H](CC(N)=O)NC(=O)[C@H](CC(=O)O)NC(=O)[C@@H](NC(=O)[C@H](CC(C)C)NC(=O)[C@H](CCCCN)NC(=O)[C@@H](NC(=O)[C@@H](NC(=O)[C@H](CCC(=O)O)NC(=O)[C@H](CCCCN)NC(=O)[C@@H](NC(=O)[C@H](CC(C)C)NC(=O)[C@H](Cc1ccccc1)NC(=O)[C@H](CCC(=O)O)NC(=O)[C@@H](N)CS)C(C)C)C(C)C)[C@@H](C)O)[C@@H](C)CC)[C@@H](C)O)C(=O)N[C@@H](CC(C)C)C(=O)O [SEQ ID NO: 1] (H-CEFLVKEVTKLIDNNKTEKEIL-OH)
side effects such as sedation (Chung model rats): No significant side effects such as sedation were observed

CC[C@H](C)[C@H](NC(=O)[C@H](CCC(=O)O)NC(=O)[C@H](CCC(=O)O)NC(=O)[C@@H](NC(=O)[C@H](C)NC(=O)[C@H](CC(N)=O)NC(=O)[C@H](CC(N)=O)NC(=O)[C@H](CC(=O)O)NC(=O)[C@@H](NC(=O)[C@H](CC(C)C)NC(=O)[C@@H](C)NC(=O)[C@@H](N)[C@@H](C)O)[C@@H](C)CC)[C@@H](C)O)C(=O)N[C@@H](CC(C)C)C(=O)N[C@@H](Cc1ccc(O)cc1)C(=O)O [SEQ ID NO: 2, TXLIDNNATEEILY] (H-T[dA]LIDNNATEEILY-OH)
side effects such as sedation (Chung model rats): No side effects were observed

B1: Prosaposin: 517 amino acid protein, precursor of four sphingolipid activator proteins (saposins A, B, C, D) (protein, UniProt P07602 1-524, looked up)
chain: MYALFLLASLLGAALAGPVLGLKECTRGSAVWCQNVKTASDCGAVKHCLQTVWNKPTVKSLPCDICKDVVTAAGDMLKDNATEEEILVYLEKTCDWLPKPNMSASCKEIVDSYLPVILDIIKGEMSRPGEVCSALNLCESLQKHLAELNHQKQLESNKIPELDMTEVVAPFMANIPLLLYPQDGPRSKPQPKDNGDVCQDCIQMVTDIQTAVRTNSTFVQALVEHVKEECDRLGPGMADICKNYISQYSEIAIQMMMHMQPKEICALVGFCDEVKEMPMQTLVPAKVASKNVIPALELVEPIKKHEVPAKSDVYCEVCEFLVKEVTKLIDNNKTEKEILDAFDKMCSKLPKSLSEECQEVVDTYGSSILSILLEEVSPELVCSMLHLCSGTRLPALTVHVTQPKDGGFCEVCKKLVGYLDRNLEKNSTKQEILAALEKGCSFLPDPYQKQCDQFVAEYEPVLIEILVEVMDPSFVCLKIGACPSAHKPLLGTEKCIWGPSYWCQNTETAAQCNAVEHCKRHVWN
modifications: full-length
choline acetyltransferase activity [1]: increases choline acetyltransferase activity | neurite outgrowth (neurite outgrowth): stimulates motor neurite outgrowth in vitro and in vivo | cell death in neuroblastoma cells (neuroblastoma cells): prevents cell death
